Data taken from US20230407367, “INTRINSICALLY DISORDERED PROTEINS FOR EXTRACTION OF NUCLEIC ACIDS” (published 2023).

T1: H-24 His-ELP (synthetic construct)
T1 chain: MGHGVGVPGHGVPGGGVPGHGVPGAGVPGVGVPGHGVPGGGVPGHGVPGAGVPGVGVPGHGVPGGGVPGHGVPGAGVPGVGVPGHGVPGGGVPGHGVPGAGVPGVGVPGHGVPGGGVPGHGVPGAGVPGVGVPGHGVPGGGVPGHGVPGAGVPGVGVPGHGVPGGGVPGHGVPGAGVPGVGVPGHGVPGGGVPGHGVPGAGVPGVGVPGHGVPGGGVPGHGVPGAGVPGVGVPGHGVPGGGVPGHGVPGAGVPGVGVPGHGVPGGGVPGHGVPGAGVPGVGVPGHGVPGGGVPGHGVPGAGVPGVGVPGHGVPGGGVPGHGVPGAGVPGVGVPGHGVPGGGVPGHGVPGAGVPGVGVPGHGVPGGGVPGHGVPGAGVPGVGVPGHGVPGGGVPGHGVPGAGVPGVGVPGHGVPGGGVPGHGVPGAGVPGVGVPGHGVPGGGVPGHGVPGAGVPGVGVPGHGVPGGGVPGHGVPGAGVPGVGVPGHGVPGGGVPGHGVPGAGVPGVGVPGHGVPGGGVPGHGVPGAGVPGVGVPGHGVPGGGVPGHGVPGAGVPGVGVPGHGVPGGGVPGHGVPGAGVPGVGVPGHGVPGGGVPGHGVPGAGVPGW

T2: H-20 His-ELP (synthetic construct)
T2 chain: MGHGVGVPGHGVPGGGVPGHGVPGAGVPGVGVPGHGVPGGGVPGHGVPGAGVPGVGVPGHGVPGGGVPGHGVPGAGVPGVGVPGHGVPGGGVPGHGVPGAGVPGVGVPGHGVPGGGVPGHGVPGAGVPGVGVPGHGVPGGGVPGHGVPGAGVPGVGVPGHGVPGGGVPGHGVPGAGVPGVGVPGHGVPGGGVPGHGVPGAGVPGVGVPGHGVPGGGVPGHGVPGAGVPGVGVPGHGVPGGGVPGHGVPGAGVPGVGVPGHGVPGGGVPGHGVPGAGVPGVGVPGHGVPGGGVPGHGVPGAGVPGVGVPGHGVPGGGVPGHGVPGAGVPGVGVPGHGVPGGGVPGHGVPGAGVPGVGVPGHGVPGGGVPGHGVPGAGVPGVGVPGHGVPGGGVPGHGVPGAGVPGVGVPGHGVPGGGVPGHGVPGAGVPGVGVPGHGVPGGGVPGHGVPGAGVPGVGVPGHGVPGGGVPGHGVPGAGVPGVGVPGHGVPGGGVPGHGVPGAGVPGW

T3: E3 ELP [(VPGXG)10-GKG]8 (synthetic construct)
T3 chain: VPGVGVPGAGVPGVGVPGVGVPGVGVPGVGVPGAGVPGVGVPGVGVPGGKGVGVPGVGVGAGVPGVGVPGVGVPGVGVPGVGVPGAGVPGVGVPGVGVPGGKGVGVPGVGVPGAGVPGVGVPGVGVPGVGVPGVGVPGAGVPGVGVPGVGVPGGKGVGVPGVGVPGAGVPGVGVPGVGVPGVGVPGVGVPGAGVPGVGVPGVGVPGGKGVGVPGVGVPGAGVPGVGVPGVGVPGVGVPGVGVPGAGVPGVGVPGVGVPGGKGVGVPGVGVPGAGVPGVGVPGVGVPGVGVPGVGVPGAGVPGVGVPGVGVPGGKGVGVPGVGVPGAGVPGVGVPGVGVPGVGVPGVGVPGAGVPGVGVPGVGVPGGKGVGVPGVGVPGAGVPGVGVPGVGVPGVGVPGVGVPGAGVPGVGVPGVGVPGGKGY

B1: ssDNA 28 nt (ssDNA)
DNA: TTTTTCCTAGAGAGTAGAGCCTGCTTCG
B2: Cy3-ssDNA (DNA-Cy3) (ssDNA)
DNA: TTTTTCCTAGAGAGTAGAGCCTGCTTCG

Key:
[1] = target: T1, H-24 His-ELP; assay: EMSA; pH 6, room temperature, 0.1-100 uM
Experimental: (§1) According to the prediction of His-ELP charge as a function of pH (FIG. 1l A), at pH 6, H-20 (SEQ. ID. NO. 8) is expected to have a charge of ≈+33 and H-24 (SEQ. ID. NO. 9) is expected to have a greater charge of ≈+39 as it has more histidines in its sequence. The primary association between His-ELPs and NAs is via electrostatic interactions; thus, the protein with greater charge is expected to have a more robust binding activity. Gel retardation assays were performed to analyze the binding activity of the His-ELPs (and another ELP with 8 cationic lysine charges, E3) with tRNA and ssDNA as a function of protein concentration at pH 6 (FIG. 12). Binding and gel electrophoresis were conducted at room temperature, below the Tt of each of the proteins, and for both tRNA and ssDNA, the degree of NA migration retardation was dependent on protein concentration (see FIG. 4).

[2] = target: T2, H-20 His-ELP; assay: EMSA; pH 6, room temperature, 0.1-100 uM; weaker than H-24
Experimental: as §1

[3] = target: T3, E3 ELP [(VPGXG)10-GKG]8; assay: coacervate partitioning at 55 C, no added NaCl, 100 mM sodium phosphate pH 7.0; 100 mM NaCl leaves much more DNA in dilute phase; conditions: label: 5'-Cy3
Excerpt: Across all t=0 samples at room temperature (T<Tt) no E3 condensates are observed (FIG. 3, A1 and D1) and all solution components are miscible and evenly distributed throughout the droplet volume (FIG. 3, A2, D2, A3 and D3). The incipient stages of thermally triggered E3 phase transition occur simultaneously throughout droplet volumes, corroborating demixing through spinodal decomposition for both +NaCl and −NaCl samples (FIG. 3, B1 and E1). […] Note that the recruitment of ssDNA-Cy3 into the E3 rich condensates is E3 concentration dependent. By contrast, addition of NaCl results in electrostatic shielding, partitioning more ssDNA-Cy3 in the solvent-rich phase (FIG. 3, B2 and C2). The combined E3 phase behavior and ssDNA-Cy3 partitioning for −NaCl and +NaCl is further evidenced by inspection of the merged brightfield and fluorescence microscopy images of FIG. 3, panels A3-F3.
To image the process of temperature-mediated E3 coacervation and interaction with DNA-Cy3, an Olympus IX83 fluorescence microscope (Olympus Life Science Technology Division, Center Valley, PA) was equipped with a Physitemp cooling and heating stage (TS4-MP/ER/PTU, Clifton, NJ) fitted with a temperature controller. Microfluidic droplets were generated using previously described methods and droplet generator. […]

| Binder | binding result [1] | binding result [2] | binding result [3] |
| --- | --- | --- | --- |
| B1 | binds | binds | – |
| B2 | – | – | binds |
